Assays:
Assay in all cases: cell-based or functional assay
[1] = target: SARS-CoV-2 Omicron BA.1 spike (S) protein (SARS-CoV-2)
[2] = target: SARS-CoV-2 Omicron BA.2 spike (S) protein (SARS-CoV-2)
[3] = target: SARS-CoV-2 Omicron BA.3 spike (S) protein (SARS-CoV-2)

AZD8895 (antibody), sequence (VH): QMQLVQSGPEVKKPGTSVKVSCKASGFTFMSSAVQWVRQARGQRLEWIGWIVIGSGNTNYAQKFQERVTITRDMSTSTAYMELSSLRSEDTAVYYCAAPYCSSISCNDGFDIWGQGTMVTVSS
AZD8895 (antibody), sequence (VL): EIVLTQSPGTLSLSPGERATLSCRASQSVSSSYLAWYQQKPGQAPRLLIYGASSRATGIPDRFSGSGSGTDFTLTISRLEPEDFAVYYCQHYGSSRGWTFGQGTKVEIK

Substance | IC50, pseudoviral neutralization [1] [mg/L] | IC50, pseudoviral neutralization [2] [mg/L] | IC50, pseudoviral neutralization [3] [mg/L]
ADG10 (antibody) | > 10 | > 10 | > 10
ADG20 (antibody) | 0.348 | > 10 | > 10
ADG30 (antibody) | > 10 | > 10 | > 10
AZD1061 (antibody) | 0.308 | 0.008 | 0.019
AZD8895 (antibody) | 0.246 | 1.33 | > 10
Ly-CoV16 (antibody) | > 10 | > 10 | > 10
Ly-CoV555 (antibody) | > 10 | > 10 | > 10
Ly-CoV1404 (antibody) | 0.002 | 0.001 | 0.002
REGN10933 (antibody) | > 10 | > 10 | > 10
REGN10987 (antibody) | > 10 | 0.516 | > 10
S309 (antibody) | 0.313 | 0.638 | 0.311
